Data taken from patent US20210087281A1 (AGOMAB THERAPEUTICS, published 2021).

What was measured:
[1] = biological target: T1, mouse MET-Fc (R&D Systems) (mouse, UniProt P16056 25-929, limits assumed); assay: competition ELISA, mMET-Fc in solid phase, competitor 0.3 nM biotinylated mHGF
T1 construct: bought chimeric protein; also called mMET; not shown: Fc part
Procedure, shortened: (§1)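 Recombinant HGF was biotinylated at its N-terminus with NHS-LC-biotin. Immobilized MET-Fc was exposed to the labelled ligand in the presence of increasing antibody concentrations (0-120 nM). Competition was expressed as IC₅₀, the concentration giving 50% competition, and IMAX, the maximum % competition at saturation.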

[2] = biological target: T2, native human MET on living cells (human, UniProt P08581 25-1390); assay: flow cytometry, A549 cells
T2 construct: whole, on cells; also called Human cells (A549); HPAF-II
Procedure, shortened: (§2)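 Detection used a phycoerythrin-labelled anti-human IgG1 secondary and flow cytometry, measuring binding of chimeric antibodies to native MET on live A549 (human) or MLP29 (mouse) cells. Positive controls were a mouse anti-human MET and a goat anti-mouse MET antibody, each with a PE-labelled secondary.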

human MET ECD [3] = biological target: T3, human MET ECD (human, UniProt P08581 25-932); assay: ELISA, MET ECD in solid phase, mAb 0-50 nM
T3 construct: range 1-932; recombinant ECD made by the applicants; the stated range begins at residue 1, so it includes the signal peptide of the entry; also called hMET; hMET ECD
Method: Using human MET as a template, we mutagenized each of these residues in different permutations, generating a series of MET mutants that are fully human except for specific residues, which are llama. Next, we tested the affinity of selected SEMA-binding mAbs (71D6, 71C3, 71D4, 71A3, 71G2) and PSI-binding mAbs (76H10 and 71G3) for these MET mutants by ELISA. To this end, the various MET proteins were immobilized in solid phase (100 ng/well in a 96-well plate) and then exposed to increasing concentrations of antibodies (0-50 nM) solution. […] Wild-type human MET was used as positive control.
TABLE 18 The epitopes of MET responsible for agonistic antibody binding represent residues conserved among H. sapiens, M. musculus, R. norvegicus, M. fascicularis but not among the same species and L. glama. The relevance of residues conserved among human, mouse, rat, cynomolgus monkey but not llama MET for binding to agonistic mAbs was tested by ELISA. Wild-type (WT) or mutant (MT) human MET ECD was immobilized in solid phase and exposed to increasing concentrations of mAbs in solution. […] All binding values were normalized to the WT protein and are expressed as % binding (EMAX) compared to WT MET.

[4] = biological target: human MET ECD mutant E (mutations 2, 3, 4) (human) (UniProt P08581); assay: ELISA, MET ECD in solid phase, mAb 0-50 nM
[5] = biological target: human MET ECD mutant D (mutations 1, 2) (human) (UniProt P08581); assay: ELISA, MET ECD in solid phase, mAb 0-50 nM
[6] = biological target: human MET ECD mutant H (mutations 2, 4) (human) (UniProt P08581); assay: ELISA, MET ECD in solid phase, mAb 0-50 nM
[7] = biological target: human MET ECD mutant A (mutations 1, 2, 3) (human) (UniProt P08581); assay: ELISA, MET ECD in solid phase, mAb 0-50 nM
human MET ECD [8] = biological target: T3, human MET ECD; assay: ELISA, MET ECD in solid phase, mAb 0-20 nM
Procedure, shortened: (§3)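 ELISA with human or mouse MET ECD coated on the plate; increasing antibody concentrations (0-20 nM) added in solution. Antibodies were chimeric llama-human IgG1, made by transient mammalian transfection and purified on protein A.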

mouse MET ECD = biological target: T4, mouse MET ECD (mouse, UniProt P16056 25-931); assay: ELISA, MET ECD in solid phase, mAb 0-20 nM
T4 construct: range 1-931; recombinant ECD made by the applicants; the stated range begins at residue 1; also called mMET; mMET ECD
Procedure, shortened: as §3

[9] = biological target: T5, native mouse MET on living cells (mouse, UniProt P16056 25-1379); assay: cell-based or functional assay
[10] = biological target: T2, native human MET on living cells; assay: cell-based or functional assay
[11] = biological target: T6, human MET-Fc (R&D Systems) (human, UniProt P08581 25-932); assay: competition ELISA, hMET-Fc in solid phase, competitor 0.3 nM biotinylated hHGF
T6 construct: extracellular domain; bought chimeric protein; also called hMET; not shown: Fc portion of human IgG1
Procedure, shortened: as §1

[12] = biological target: T5, native mouse MET on living cells; assay: cell-based or functional assay; remark: listed apart in the source
[13] = biological target: T2, native human MET on living cells; assay: cell-based or functional assay; remark: listed apart in the source
[14] = biological target: T5, native mouse MET on living cells; assay: cell-based or functional assay; remark: listed apart in the source
[15] = biological target: T2, native human MET on living cells; assay: cell-based or functional assay; remark: listed apart in the source
[16] = biological target: T5, native mouse MET on living cells; assay: cell-based or functional assay; remark: listed apart in the source
[17] = biological target: T2, native human MET on living cells; assay: cell-based or functional assay; remark: listed apart in the source
[18] = biological target: T5, native mouse MET on living cells; assay: flow cytometry, MLP29 cells
Procedure, shortened: as §2

T3 sequence (P08581 25-932 limits assumed, form in doubt): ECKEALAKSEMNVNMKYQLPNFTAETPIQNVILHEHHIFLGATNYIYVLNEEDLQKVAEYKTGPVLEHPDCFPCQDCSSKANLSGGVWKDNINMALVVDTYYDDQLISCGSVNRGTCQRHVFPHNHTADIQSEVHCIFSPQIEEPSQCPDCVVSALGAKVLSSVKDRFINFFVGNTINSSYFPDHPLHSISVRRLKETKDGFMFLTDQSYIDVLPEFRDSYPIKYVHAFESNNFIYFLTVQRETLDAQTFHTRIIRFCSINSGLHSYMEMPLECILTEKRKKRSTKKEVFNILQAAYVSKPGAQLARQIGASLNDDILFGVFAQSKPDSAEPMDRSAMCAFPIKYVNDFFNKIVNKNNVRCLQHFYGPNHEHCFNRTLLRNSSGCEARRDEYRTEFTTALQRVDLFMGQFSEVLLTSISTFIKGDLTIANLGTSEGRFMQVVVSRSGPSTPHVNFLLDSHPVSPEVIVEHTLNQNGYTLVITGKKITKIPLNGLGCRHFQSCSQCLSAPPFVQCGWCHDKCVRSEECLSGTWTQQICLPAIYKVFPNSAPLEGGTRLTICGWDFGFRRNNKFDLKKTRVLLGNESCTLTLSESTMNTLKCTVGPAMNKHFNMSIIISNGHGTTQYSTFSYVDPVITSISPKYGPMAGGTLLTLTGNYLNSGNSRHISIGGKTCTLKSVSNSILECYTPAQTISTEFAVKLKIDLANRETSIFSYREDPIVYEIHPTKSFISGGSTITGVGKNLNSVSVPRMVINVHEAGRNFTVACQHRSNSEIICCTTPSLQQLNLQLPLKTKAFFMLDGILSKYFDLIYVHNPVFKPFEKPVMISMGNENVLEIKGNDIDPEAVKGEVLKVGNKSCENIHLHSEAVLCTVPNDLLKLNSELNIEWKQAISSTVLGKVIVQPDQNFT
T6 sequence (P08581 25-932): as the sequence (P08581 25-932 limits assumed, form in doubt) above
T2 sequence (P08581 25-1390): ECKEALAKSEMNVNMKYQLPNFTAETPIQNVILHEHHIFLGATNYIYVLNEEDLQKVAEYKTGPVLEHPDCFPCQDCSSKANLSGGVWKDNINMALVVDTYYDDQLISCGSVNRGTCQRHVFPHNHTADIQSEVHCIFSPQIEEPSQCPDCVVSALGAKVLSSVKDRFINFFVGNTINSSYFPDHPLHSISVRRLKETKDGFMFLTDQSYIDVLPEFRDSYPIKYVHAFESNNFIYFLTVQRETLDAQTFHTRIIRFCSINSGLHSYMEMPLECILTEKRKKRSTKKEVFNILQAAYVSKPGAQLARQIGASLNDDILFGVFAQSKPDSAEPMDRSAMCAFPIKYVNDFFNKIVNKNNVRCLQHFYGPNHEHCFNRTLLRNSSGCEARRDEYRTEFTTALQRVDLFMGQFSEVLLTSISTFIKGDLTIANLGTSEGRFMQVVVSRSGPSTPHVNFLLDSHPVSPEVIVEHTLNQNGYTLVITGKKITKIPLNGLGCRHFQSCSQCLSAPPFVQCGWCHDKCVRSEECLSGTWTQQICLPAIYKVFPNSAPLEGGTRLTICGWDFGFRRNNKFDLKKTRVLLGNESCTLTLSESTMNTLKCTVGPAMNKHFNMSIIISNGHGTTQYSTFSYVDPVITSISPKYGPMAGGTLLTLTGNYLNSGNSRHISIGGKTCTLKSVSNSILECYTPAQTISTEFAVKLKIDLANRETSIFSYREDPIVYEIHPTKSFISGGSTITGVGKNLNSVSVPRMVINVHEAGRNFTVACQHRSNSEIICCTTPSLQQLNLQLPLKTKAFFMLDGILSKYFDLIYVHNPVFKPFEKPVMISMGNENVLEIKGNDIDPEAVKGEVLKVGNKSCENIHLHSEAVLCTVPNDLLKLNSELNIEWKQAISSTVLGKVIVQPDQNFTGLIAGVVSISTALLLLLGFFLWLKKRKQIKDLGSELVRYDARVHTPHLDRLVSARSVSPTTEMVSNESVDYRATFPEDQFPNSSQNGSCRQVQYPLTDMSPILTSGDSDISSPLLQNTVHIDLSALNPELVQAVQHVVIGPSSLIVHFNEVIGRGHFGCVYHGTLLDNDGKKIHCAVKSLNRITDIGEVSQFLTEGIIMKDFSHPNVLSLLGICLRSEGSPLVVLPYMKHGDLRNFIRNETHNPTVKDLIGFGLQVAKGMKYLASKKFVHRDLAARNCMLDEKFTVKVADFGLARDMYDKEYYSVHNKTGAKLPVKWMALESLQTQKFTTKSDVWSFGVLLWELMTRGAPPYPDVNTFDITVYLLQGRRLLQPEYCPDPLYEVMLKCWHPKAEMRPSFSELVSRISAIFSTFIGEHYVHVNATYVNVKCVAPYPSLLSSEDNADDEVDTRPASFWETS

B1: 71D4 chimeric llama-human IgG1 mAb (antibody, V domains shown)
VH: ELQLVESGGGLVQPGGSLRLSCAASGFTFSGYGMSWVRQAPGKGLEWVSDINSGGGSTSYADSVKGRFTISRDNAKNTLYLQMNSLKPEDTAVYYCAKDMRLYLARYNDYEAWDYWGQGTQVTVSS
VL: SSALTQPSALSVTLGQTAKITCQGGSLGSSYAHWYQQKPGQAPVLVIYDDDSRPSGIPERFSGSSSGGTATLTISGAQAEDEGDYYCQSADSSGNAAVFGGGTHLTVL
notes: llama VH on human IgG1 CH1-CH2-CH3, llama VL on human lambda CL
For B1, the IC50 [1] was 0.4 nM, the IMAX [1] was 91.3% and the EC50 [2] was 0.371 nM. For the same binder, the EMAX [2] was 107 % relative to control, the “% binding (EMAX) compared to WT MET” value (human MET ECD [3]) was 100 % WT MET ECD and the % binding (EMAX) compared to WT MET [4] was 57.2 % WT MET ECD. The % binding (EMAX) compared to WT MET [5] was 120 % WT MET ECD, the % binding (EMAX) compared to WT MET [6] was 58.7 % WT MET ECD and the % binding (EMAX) compared to WT MET [7] was 114 % WT MET ECD. For the same binder, the EC50 (human MET ECD [8]) was 0.207 nM, the “EMAX (OD450)” value (human MET ECD [8]) was 1.43 AU and the EC50 (mouse MET ECD) was 0.274 nM. For the same binder, the “EMAX (OD450)” value (mouse MET ECD) was 1.17 AU, the “phospho-MET ELISA EC50, MLP29 cells” value [9] was 0.51 nM and the “phospho-MET ELISA EMAX (% HGF activity), MLP29 cells” value [9] was 95.3%. For the same binder, the “phospho-MET ELISA EC50, A549 cells” value [10] was 0.59 nM, the “phospho-MET ELISA EMAX (% HGF activity), A549 cells” value [10] was 84.6% and the IC50 [11] was 0.34 nM. The IMAX [11] was 95.6%, the “scatter score 0-4, MLP29, 0.001 nM” value [12] was 0 score and the “scatter score 0-4, MLP29, 0.004 nM” value [12] was 0 score. For the same binder, the “scatter score 0-4, MLP29, 0.012 nM” value [12] was 0 score, the “scatter score 0-4, MLP29, 0.037 nM” value [12] was 0 score and the “scatter score 0-4, MLP29, 0.111 nM” value [12] was 0 score. The “scatter score 0-4, MLP29, 0.333 nM” value [12] was 0 score, the “scatter score 0-4, MLP29, 1.000 nM” value [12] was 1 score and the “scatter score 0-4, MLP29, 3.000 nM” value [12] was 2 score. The “scatter score 0-4, MLP29, 9.000 nM” value [12] was 2 score, the “scatter score 0-4, HPAF-II, 0.001 nM” value [13] was 0 score and the “scatter score 0-4, HPAF-II, 0.004 nM” value [13] was 0 score. For the same binder, the “scatter score 0-4, HPAF-II, 0.012 nM” value [13] was 0 score, the “scatter score 0-4, HPAF-II, 0.037 nM” value [13] was 0 score and the “scatter score 0-4, HPAF-II, 0.111 nM” value [13] was 0 score. For the same binder, the “scatter score 0-4, HPAF-II, 0.333 nM” value [13] was 0 score, the “scatter score 0-4, HPAF-II, 1.000 nM” value [13] was 1 score and the “scatter score 0-4, HPAF-II, 3.000 nM” value [13] was 2 score. The “scatter score 0-4, HPAF-II, 9.000 nM” value [13] was 2 score, the “branches per spheroid, MLP29 cells, 0.5 nM” value [14] was 16 branches and the “branches per spheroid, MLP29 cells, 2.5 nM” value [14] was 14.7 branches. For the same binder, the “branches per spheroid, MLP29 cells, 12.5 nM” value [14] was 21.7 branches, the “branches per spheroid, LOC cells, 0.5 nM” value [15] was 9 branches and the “branches per spheroid, LOC cells, 2.5 nM” value [15] was 15.7 branches. The “branches per spheroid, LOC cells, 12.5 nM” value [15] was 18.7 branches, the “protection from staurosporine, viability EC50, MLP29 cells” value [16] was 29.8 nM and the “protection from staurosporine, viability EMAX, MLP29 cells” value [16] was 52.1%. The “protection from staurosporine, viability EC50, MCF10A cells” value [17] was 30.2 nM, the “protection from staurosporine, viability EMAX, MCF10A cells” value [17] was 51.7% and the EC50 [18] was 0.498 nM. The EMAX [18] was 94.8 % relative to control.

B2: 71A3 chimeric llama-human IgG1 mAb (antibody, V domains shown)
VH: EVQLVESGGGLVQPGGSLRLSCAASGFSFKDYDITWVRQAPGKGLEWVSTITSRSGSTSYVDSVKGRFTISGDNAKNTLYLQMNSLKPEDTAVYYCAKVYATTWDVGPLGYGMDYWGKGTLVTVSS
VL: SYELTQPSALSVTLGQTAKITCQGGSLGSSYAHWYQQKPGQAPVLVIYDDDSRPSGIPERFSGSSSGGTATLTISGAQAEDEGDYYCQSADSSGNAAVFGGGTHLTVL
notes: as for B1
Work on B2 yielded an IC50 [1] of 0.54 nM, an IMAX [1] of 87.7% and an EC50 [2] of 0.514 nM. For the same binder, the EMAX [2] was 161 % relative to control, the “% binding (EMAX) compared to WT MET” value (human MET ECD [3]) was 100 % WT MET ECD and the % binding (EMAX) compared to WT MET [4] was 65.4 % WT MET ECD. The % binding (EMAX) compared to WT MET [5] was 128 % WT MET ECD, the % binding (EMAX) compared to WT MET [6] was 76.7 % WT MET ECD and the % binding (EMAX) compared to WT MET [7] was 117 % WT MET ECD. The EC50 (human MET ECD [8]) was 0.229 nM, the “EMAX (OD450)” value (human MET ECD [8]) was 2.4 AU and the EC50 (mouse MET ECD) was 0.176 nM. The “EMAX (OD450)” value (mouse MET ECD) was 2.73 AU, the “phospho-MET ELISA EC50, MLP29 cells” value [9] was 0.26 nM and the “phospho-MET ELISA EMAX (% HGF activity), MLP29 cells” value [9] was 96%. The “phospho-MET ELISA EC50, A549 cells” value [10] was 0.31 nM, the “phospho-MET ELISA EMAX (% HGF activity), A549 cells” value [10] was 86.6% and the IC50 [11] was 0.51 nM. For the same binder, the IMAX [11] was 93.4%, the “scatter score 0-4, MLP29, 0.001 nM” value [12] was 0 score and the “scatter score 0-4, MLP29, 0.004 nM” value [12] was 0 score. For the same binder, the “scatter score 0-4, MLP29, 0.012 nM” value [12] was 2 score, the “scatter score 0-4, MLP29, 0.037 nM” value [12] was 3 score and the “scatter score 0-4, MLP29, 0.111 nM” value [12] was 3 score. The “scatter score 0-4, MLP29, 0.333 nM” value [12] was 4 score, the “scatter score 0-4, MLP29, 1.000 nM” value [12] was 4 score and the “scatter score 0-4, MLP29, 3.000 nM” value [12] was 4 score. The “scatter score 0-4, MLP29, 9.000 nM” value [12] was 4 score, the “scatter score 0-4, HPAF-II, 0.001 nM” value [13] was 0 score and the “scatter score 0-4, HPAF-II, 0.004 nM” value [13] was 0 score. For the same binder, the “scatter score 0-4, HPAF-II, 0.012 nM” value [13] was 2 score, the “scatter score 0-4, HPAF-II, 0.037 nM” value [13] was 3 score and the “scatter score 0-4, HPAF-II, 0.111 nM” value [13] was 3 score. For the same binder, the “scatter score 0-4, HPAF-II, 0.333 nM” value [13] was 4 score, the “scatter score 0-4, HPAF-II, 1.000 nM” value [13] was 4 score and the “scatter score 0-4, HPAF-II, 3.000 nM” value [13] was 4 score. The “scatter score 0-4, HPAF-II, 9.000 nM” value [13] was 4 score, the “branches per spheroid, MLP29 cells, 0.5 nM” value [14] was 30.3 branches and the “branches per spheroid, MLP29 cells, 2.5 nM” value [14] was 42 branches. For the same binder, the “branches per spheroid, MLP29 cells, 12.5 nM” value [14] was 42.7 branches, the “branches per spheroid, LOC cells, 0.5 nM” value [15] was 24 branches and the “branches per spheroid, LOC cells, 2.5 nM” value [15] was 30.3 branches. The “branches per spheroid, LOC cells, 12.5 nM” value [15] was 31.3 branches, the “protection from staurosporine, viability EC50, MLP29 cells” value [16] was less than 0.5 nM and the “protection from staurosporine, viability EMAX, MLP29 cells” value [16] was 70.5%. For the same binder, the “protection from staurosporine, viability EC50, MCF10A cells” value [17] was less than 0.5 nM, the “protection from staurosporine, viability EMAX, MCF10A cells” value [17] was 71.7% and the EC50 [18] was 0.811 nM. The EMAX [18] was 144 % relative to control.
